In publication PMC12188478, “Leveraging the Aminothiol-Specific Phosphorogenic Response of Iridium(III) Thioester Complexes for the Development of Intracellular Sensors and Cancer Phototherapeutics” (JACS Au, 2025):
Peptide text beside a SMILES is read from it. * marks the point of attachment. X1 = Cc1cc[n+]2c(c1)-c1cc(C(=O)*)cc[n+]1[Ir-3]213([c]2c(sc4ccccc24)-c2c4ccccc4cc[n+]21)[c]1c(sc2ccccc12)-c1c2ccccc2cc[n+]13; Isonicotinoyl(2-(4-Me-2-Py)) = Cc1ccnc(-c2cc(C(=O)*)ccn2)c1

Key:
[1] = system: HEK-293 cells; assay: MTT (photo)cytotoxicity assay; type: cell-based; conditions: ratio IC50,dark/IC50,light, 24 h incubation
Protocol: (§1) HeLa or HEK-293 cells were seeded in two 96-well flat-bottomed microplates (ca. 10,000 cells per well) in growth medium (100 μL) and incubated at 37 °C under a 5% CO2 atmosphere for 48 h. The growth medium was removed and replaced with medium/DMSO (100 μL, 99:1, v/v) containing complex 3a with concentrations ranging from 10^–5 to 10^–8 M. Wells containing untreated cells were used as blank control. The microplates were incubated at 37 °C in the dark under a 5% CO2 atmosphere for 2 h. After the treatment, the medium was removed and replenished with phenol red-free growth medium (100 μL). One of the microplates was irradiated at 450 nm (14.6 mW cm^–2) for 10 min with an LED cellular photocytotoxicity irradiator (PURI Materials, Shenzhen, China) and the other microplate was kept in the dark. Then the growth medium was replaced with fresh medium and the cells were further incubated at 37 °C under a 5% CO2 atmosphere for 24 h. The medium in each well was then replaced with fresh medium (90 μL) and 10 μL of MTT (5 mg mL^ –1) in PBS. The microplates were incubated at 37 °C under a 5% CO2 atmosphere for 4 h. The growth medium was then removed, and DMSO (100 μL) was added to each well. After 20 min, the absorbance of the solutions at 570 nm was measured with an Multiskan SkyHigh Microplate Spectrophotometer (Thermo Scientific). The IC50 values of the complex were determined from dose dependence of surviving cells after the treatment using the OriginPro 8.0 software package. For conjugates 3a-CASP, 3a-CYNT, and 3a-CMYI, the procedure was similar to that of complex 3a, except that MDA-MB-231, MCF-7, and HEK-293 cells were used and the conjugates were incubated for 24 h instead of 2 h before irradiation.

[2] = system: MCF-7 cells; assay: MTT (photo)cytotoxicity assay; type: cell-based; conditions: ratio IC50,dark/IC50,light, 24 h incubation
Protocol: as §1

[3] = system: MDA-MB-231 cells; assay: MTT (photo)cytotoxicity assay; type: cell-based; conditions: ratio IC50,dark/IC50,light, 24 h incubation
Protocol: as §1

[4] = system: HEK-293 cells; assay: Cellular uptake by ICP-MS; type: cell-based; conditions: 10 μM, 37 °C, 16 h
Protocol: (§2) HeLa or HEK-293 cells were seeded in a 35-mm tissue culture dish and incubated at 37 °C under a 5% CO2 atmosphere for 48 h. The culture medium was removed and replaced with complexes 1a and 3a (10 μM) in medium/DMSO (99:1, v/v) at 37 °C under a 5% CO2 atmosphere for 2 h. After the treatment, the medium was removed, and the cells were washed with PBS (1 mL × 3). The cells were then trypsinized and harvested with PBS (1 mL). The cell numbers were obtained by a Logos Biosystems LUNA-II automated cell counter. The resultant solution was digested with 65% HNO3 (1 mL) at 70 °C for 2 h, allowed to cool to room temperature, and analyzed by a NexION 2000 ICP-MS (PerkinElmer SCIEX Instruments). For conjugates 3a-Cys, 3a-CASP, 3a-CYNT, and 3a-CMYI, the procedure was similar to that of complexes 1a and 3a, except that MDA-MB-231, MCF-7, and HEK-293 cells were used and the conjugates were incubated for 16 h instead of 2 h before the measurements.

[5] = system: MCF-7 cells; assay: Cellular uptake by ICP-MS; type: cell-based; conditions: 10 μM, 37 °C, 16 h
Protocol: as §2

[6] = system: MDA-MB-231 cells; assay: Cellular uptake by ICP-MS; type: cell-based; conditions: 10 μM, 37 °C, 16 h
Protocol: as §2

[7] = 1O2 generation quantum yield; type: physicochemical; conditions: aerated CH3CN/H2O (4:1, v/v), 298 K, λex 450 nm
Protocol: The ^1O2 generation efficiencies of all complexes were evaluated by monitoring the emission band of ^1O2 centered at ca. […]

[8] = system: MDA-MB-231 cells; assay: Cellular uptake mechanism studies (ICP-MS); type: cell-based; conditions: 10 μM
Protocol: Conjugate 3a-CASP: MDA-MB-231 cells were seeded in a 35-mm tissue culture dish and incubated at 37 °C under a 5% CO2 atmosphere for 48 h. The culture medium was removed and replaced with conjugate 3a-CASP (10 μM) in medium/DMSO (99:1, v/v) at 37 °C under a 5% CO2 atmosphere for 4 or 16 h. In the low-temperature experiments, the cells were preincubated at 4 °C for 1 h prior to incubation with conjugate 3a-CASP (10 μM) in medium/DMSO (99:1, v/v) […]. In the chemical inhibition experiments, the cells were pretreated with EIPA (50 μM) for 1.5 h, Me-β-CD (5 mM) for 1 h, or chlorpromazine (30 μM) for 1 h at 37 °C under a 5% CO2 atmosphere. The cells were then washed with PBS (1 mL × 3) and incubated with conjugate 3a-CASP (10 μM) in medium/DMSO (99:1, v/v) at 37 °C under a 5% CO2 atmosphere for 16 h.
(§3) Conjugate 3a-CYNT: MDA-MB-231 cells were seeded in a 35-mm tissue culture dish and incubated at 37 °C under a 5% CO2 atmosphere for 48 h. The culture medium was removed and replaced with conjugate 3a-CYNT (10 μM) in medium/DMSO (99:1, v/v) at 37 °C under a 5% CO2 atmosphere for 16 h. In the CAIX inhibition experiments, the cells were pretreated with acetazolamide (1 mM) at 37 °C under a 5% CO2 atmosphere for 6 h. The cells were then washed with PBS (1 mL × 3) and incubated with conjugate 3a-CYNT (10 μM) in medium/DMSO (99:1, v/v) at 37 °C under a 5% CO2 atmosphere for 16 h.
as §3, with “Conjugate 3a-CMYI:” for “Conjugate 3a-CYNT:”, “conjugate 3a-CMYI” for “conjugate 3a-CYNT”, “the EGFR” for “the CAIX”, “with gefitinib (50 μM)” for “with acetazolamide (1 mM)”, “for 1” for “for 6”
For all the experiments, after incubation with the conjugates, the medium was removed, and the cells were washed with PBS (1 mL × 3). The cells were then trypsinized and harvested with PBS (1 mL). The cell numbers were measured by a Logos Biosystems LUNA-II automated cell counter. The resultant solution was digested with 65% HNO3 (1 mL) at 70 °C for 2 h, allowed to cool to room temperature, and analyzed by a NexION 2000 ICP-MS (PerkinElmer SCIEX Instruments).

[9] = Reaction kinetics with L-Cys by HPLC; conditions: potassium phosphate buffer (50 mM, pH 7.0)/DMSO (3:2, v/v), TCEP 250 μM, 298 K
Protocol: The reactivity of the thioester complexes 1a–4a toward N-Cys-containing biomolecules in potassium phosphate buffer (50 mM, pH 7.0)/DMSO (3:2, v/v) containing tris(2-carboxyethyl)-phosphine (TCEP) (250 μM) at 298 K (Scheme ) were investigated using L-Cys as a model. […] The formation of the conjugation products 1a-Cys–4a-Cys was validated by ESI-MS analyses (Figure S7). The isolated conjugate 1a-Cys was further characterized by 1D and 2D COSY ^1H NMR. The signals at δ = 8.18 and 1.89 ppm in the ^1H NMR spectra (Figures S8 and S9) correspond to the CONH and SH protons, respectively, confirming the successful labeling of L-Cys with the thioester complex via the NCL reaction involving transthioesterification and an S → N acyl shift. […]
All reactions were performed on a 100-µL scale. The reaction kinetics of the thioester complexes 1a – 4a (20 µM) and ligand bpy-COSBn (100 µM) with L-Cys (25 µM for the complexes and 250 µM for the ligand) in potassium phosphate buffer (50 mM, pH 7.0)/DMSO (3:2, v/v) containing TCEP (250 µM) at 298 K was measured by reversed-phase high-performance liquid chromatography (RP-HPLC). The reactions at different time points were quenched by the addition of 900 µL of cold H2O/CH3CN (1:1, v/v) and then analyzed by RP-HPLC. […] The second-order rate constants (k2) were determined by fitting the data to the following equation: […]

Compound	PI [1]	PI [2]	PI [3]	Amount of iridium associated with an average cell [4]	Amount of iridium associated with an average cell [5]	Amount of iridium associated with an average cell [6]	1O2 generation quantum yield (ΦΔ) [7]	decrease in intracellular iridium content at 4 °C ([8]; 4 h, 4 °C versus 37 °C)	reduction of cellular uptake efficiency after chlorpromazine pretreatment ([8]; 16 h, chlorpromazine 30 μM, 1 h)	reduction of uptake after gefitinib (EGFR inhibitor) pretreatment ([8]; 16 h, gefitinib 50 μM, 1 h)	reduction of uptake after acetazolamide (CAIX inhibitor) pretreatment ([8]; 16 h, acetazolamide 1 mM, 6 h)	second-order rate constant (k2) for reaction with L-Cys [9]
Cc1ccnc(-c2cc(C(=O)N[C@@H](CS)C(=O)N[C@@H](C)C(=O)N[C@@H](CO)C(=O)N3CCC[C@H]3C(=O)N[C@@H](CO)C(=O)NCC(=O)N[C@@H](C)C(=O)N[C@@H](CC(C)C)C(=O)N[C@@H](CCCNC(=N)N)C(=O)N[C@@H](CO)C(=O)N[C@@H](CS)C(=O)O)ccn2)c1 [Conjugate 3a-CASP] ({Isonicotinoyl(2-(4-Me-2-Py))}-CASPSGALRSC-OH; C-terminus assumed)	>18	>18	>61	0.074 fmol	0.10 fmol	1.6 fmol	0.24	ca. 70%	ca. 30%			
CC[C@H](C)[C@H](NC(=O)[C@H](Cc1ccc(O)cc1)NC(=O)[C@H](CCSC)NC(=O)[C@H](CS)NC(=O)c1cc[n+]2c(c1)-c1cc(C)cc[n+]1[Ir-3]213([c]2c(sc4ccccc24)-c2c4ccccc4cc[n+]21)[c]1c(sc2ccccc12)-c1c2ccccc2cc[n+]13)C(=O)N[C@@H](CCC(=O)O)C(=O)N[C@@H](C)C(=O)N[C@@H](CC(C)C)C(=O)N[C@@H](CC(=O)O)C(=O)N[C@@H](CCCCN)C(=O)N[C@@H](Cc1ccc(O)cc1)C(=O)N[C@@H](C)C(=O)N[C@@H](CS)C(=O)O [Conjugate 3a-CMYI] (X1-CMYIEALDKYAC-OH; C-terminus assumed)	>28	>25	>109	0.033 fmol	0.074 fmol	0.21 fmol	0.20			~10%		
Cc1cc[n+]2c(c1)-c1cc(C(=O)N[C@@H](CS)C(=O)N[C@@H](Cc3ccc(O)cc3)C(=O)N[C@@H](CC(N)=O)C(=O)N[C@H](C(=O)N[C@@H](CC(N)=O)C(=O)N[C@@H](Cc3c[nH]cn3)C(=O)N[C@H](C(=O)N3CCC[C@H]3C(=O)N[C@@H](CC(C)C)C(=O)N[C@@H](CO)C(=O)N3CCC[C@H]3C(=O)N[C@@H](CCCCN)C(=O)N[C@@H](Cc3ccc(O)cc3)C(=O)O)C(C)C)[C@@H](C)O)cc[n+]1[Ir-3]213([c]2c(sc4ccccc24)-c2c4ccccc4cc[n+]21)[c]1c(sc2ccccc12)-c1c2ccccc2cc[n+]13 [Conjugate 3a-CYNT] (X1-CYNTNHVPLSPKY-OH; C-terminus assumed)	>45	>38	>139	0.10 fmol	0.10 fmol	1.8 fmol	0.28				ca. 20%	
Cc1ccnc(-c2cc(C(=O)SCc3ccccc3)ccn2)c1 [bpy-COSBn, S-benzyl 4’-methyl-2,2’-bipyridine-4-carbothioate]												11.3 M^–1 s^–1
